Results as given in patent publication US20090186842, “Methods and compositions for inhibition of viral replication” (published 2009).

T1: GST-TIAR RRM3 (UniProt Q01085 Q01085:205-277)
T1 sequence: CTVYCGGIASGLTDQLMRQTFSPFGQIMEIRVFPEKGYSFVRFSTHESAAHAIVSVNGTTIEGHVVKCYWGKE

T2: GST-TIAR RRM1 (UniProt Q01085 Q01085:9-85)
T2 sequence: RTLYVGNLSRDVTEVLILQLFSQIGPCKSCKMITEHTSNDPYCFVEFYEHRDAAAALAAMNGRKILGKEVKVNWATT

T3: GST-TIAR RRM2 (UniProt Q01085 Q01085:97-175)
T3 sequence: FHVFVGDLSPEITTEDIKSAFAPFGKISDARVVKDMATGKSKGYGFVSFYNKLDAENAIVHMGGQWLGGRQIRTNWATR

T4: GST-TIA-1 RRM2 (UniProt P31483 P31483:106-184)
T4 sequence: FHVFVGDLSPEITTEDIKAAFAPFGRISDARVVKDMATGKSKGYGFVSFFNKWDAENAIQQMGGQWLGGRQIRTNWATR

T5: GST-TIA-1 RRM3 (UniProt P31483 P31483:214-286)
T5 sequence: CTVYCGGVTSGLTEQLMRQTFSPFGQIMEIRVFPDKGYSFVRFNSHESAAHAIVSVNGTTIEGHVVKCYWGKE

T6: GST-TIA-1 RRM1 (UniProt P31483 P31483:7-83)
T6 sequence: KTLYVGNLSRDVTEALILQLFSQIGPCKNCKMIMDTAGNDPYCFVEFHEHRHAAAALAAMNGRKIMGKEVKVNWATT

T7: TIARa (rTIAR) (Mus musculus, UniProt P70318 P70318:1-392)
T7 sequence: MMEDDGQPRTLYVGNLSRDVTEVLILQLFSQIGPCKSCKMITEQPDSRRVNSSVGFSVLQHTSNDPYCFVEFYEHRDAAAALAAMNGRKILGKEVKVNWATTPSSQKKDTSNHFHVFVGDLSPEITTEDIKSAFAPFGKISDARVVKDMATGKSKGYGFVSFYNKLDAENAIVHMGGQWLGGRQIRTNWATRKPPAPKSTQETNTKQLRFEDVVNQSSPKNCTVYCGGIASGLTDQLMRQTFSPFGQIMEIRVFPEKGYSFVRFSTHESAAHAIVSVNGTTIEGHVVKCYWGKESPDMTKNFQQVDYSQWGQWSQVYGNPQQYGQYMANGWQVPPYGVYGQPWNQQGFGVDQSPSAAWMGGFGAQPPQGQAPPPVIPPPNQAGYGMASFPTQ


How the values were obtained:
GST-TIAR RRM3 = target: T1, GST-TIAR RRM3; test: EMSA; 200 nM protein; details: tags: GST fusion; label: 32P; stem-loop
GST-TIAR RRM1 = target: T2, GST-TIAR RRM1; test: EMSA; 200 nM protein; details: tags: GST fusion; label: 32P; stem-loop
GST-TIAR RRM2 = target: T3, GST-TIAR RRM2; test: EMSA; SD 5 nM, n=1.2; details: tags: GST fusion; label: 32P; stem-loop
GST-TIA-1 RRM2 = target: T4, GST-TIA-1 RRM2; test: EMSA; SD 15 nM, n=1.1; details: tags: GST fusion; label: 32P; stem-loop
GST-TIA-1 RRM3 = target: T5, GST-TIA-1 RRM3; test: EMSA; 500 nM protein; details: tags: GST fusion; label: 32P; stem-loop
GST-TIA-1 RRM1 = target: T6, GST-TIA-1 RRM1; test: EMSA; 500 nM protein; details: tags: GST fusion; label: 32P; stem-loop
TIARa (rTIAR) = target: T7, TIARa (rTIAR); test: EMSA; 5-90 nM protein, 0.2 nM RNA, 1 mM MgCl2, 30 mM KCl, RT; details: tags: C-terminal His6; label: 32P; stem-loop; AU-rich loops L1, L2, L3

| Binder | binding result (GST-TIAR RRM3) | binding result (GST-TIAR RRM1) | Kd (GST-TIAR RRM2) [nM] | Kd (GST-TIA-1 RRM2) [nM] | binding result (GST-TIA-1 RRM3) | binding result (GST-TIA-1 RRM1) | binding result (TIARa (rTIAR)) |
| --- | --- | --- | --- | --- | --- | --- | --- |
| WNV 3'(-)SL RNA with 5' CCC (ssRNA) RNA: CCCCAGCUCGCACCGUGUUAAUUGUUGUUAAUCCUCACAAACACUACUAAGUUUGUCAGCUCACACAGGCGAACUACU | no binding | no binding | 15 | 112 | no binding | no binding | – |
| WNV3'(-)SL RNA (ssRNA) RNA: CAGCUCGCACCGUGUUAAUUGUUGUUAAUCCUCACAAACACUACUAAGUUUGUCAGCUCACACAGGCGAACUACU | – | – | – | – | – | – | binds |
